Consider 1 molecule from patent US20220185894A1 (F STAR THERAPEUTICS, published 2022).

A value given as a limit tells only on which side of the number the result lay.

Assay [1] concerns the target T1, human LAG-3 expressed on cells (human, UniProt P18627 23-525).
T1 construct: also called hLAG-3; DO11.10 hLAG-3
T1 sequence: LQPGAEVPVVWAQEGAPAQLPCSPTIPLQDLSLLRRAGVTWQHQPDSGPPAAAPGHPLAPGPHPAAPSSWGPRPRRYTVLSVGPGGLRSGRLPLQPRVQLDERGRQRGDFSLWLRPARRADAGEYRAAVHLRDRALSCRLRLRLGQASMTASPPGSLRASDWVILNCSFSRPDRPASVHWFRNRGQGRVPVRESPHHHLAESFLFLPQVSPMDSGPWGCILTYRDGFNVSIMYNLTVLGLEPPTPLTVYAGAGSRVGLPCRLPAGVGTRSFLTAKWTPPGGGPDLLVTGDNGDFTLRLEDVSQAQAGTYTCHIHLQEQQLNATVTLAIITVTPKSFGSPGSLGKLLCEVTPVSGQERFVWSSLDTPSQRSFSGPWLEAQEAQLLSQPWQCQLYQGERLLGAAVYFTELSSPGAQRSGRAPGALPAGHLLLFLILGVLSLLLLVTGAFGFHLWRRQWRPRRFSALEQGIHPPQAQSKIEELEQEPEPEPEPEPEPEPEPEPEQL
The assay is described as follows: flow cytometry on HEK cells expressing human LAG-3. The method, then:
(§1) The affinity of the mAb² (all containing the LALA mutation) for cell expressed human or cynomolgus LAG-3 was determined using flow cytometry. HEK cells expressing human or cynomolgus LAG-3 grown in DMEM (Life Technologies, 61965-026) containing 10% FBS (Life Technologies, 10270-1-6), 100 μg/ml Hygromycin B (Melford Laboratories Ltd, Z2475), 15 μg/ml Blasticidin (Melford Laboratories Ltd, B1105) and 1 μg/ml Doxycyclin (Sigma, D9891) were detached from tissue culture flasks using cell dissociation buffer (Life Technologies, 13151-014) and seeded in V-bottom 96-well plates (Costar, 3897) at 2×10⁵ cells/well. The plates were centrifuged at 1500 rpm for 3 min at 4° C. to pellet the cells. A dilution series of the mAb² (or control mAb) were incubated with the cells in a 100 μl volume for 1 h at 4° C. The plates were washed and secondary antibody (Anti-human Fc-488, Jackson ImmunoResearch, 109-546-098) was diluted 1:1000 in PBS and 100 μl was added to the cells for 30 min at 4° C. (plates were kept in the dark). The plates were washed and then cells were resuspended in 100 μl PBS containing 1 μg/ml DAPI (Biotium, 40043). The plates were read using Canto II flow cytometer (BD Bioscience). Dead cells were excluded and the fluorescence in the FITC channel (488 nm/530/30) was measured. The data was fit using log (agonist) vs response in GraphPad Prism Software. The plates were read on a BD FACSCanto II cytometer (BD Biosciences) and the data analysed using FlowJo.

The target in assay [2] is T2, cynomolgus LAG-3 expressed on cells (cynomolgus monkey, UniProt P18627 24-525 (human entry)).
T2 construct: also called cLAG-3; cyno LAG-3
T2 chain: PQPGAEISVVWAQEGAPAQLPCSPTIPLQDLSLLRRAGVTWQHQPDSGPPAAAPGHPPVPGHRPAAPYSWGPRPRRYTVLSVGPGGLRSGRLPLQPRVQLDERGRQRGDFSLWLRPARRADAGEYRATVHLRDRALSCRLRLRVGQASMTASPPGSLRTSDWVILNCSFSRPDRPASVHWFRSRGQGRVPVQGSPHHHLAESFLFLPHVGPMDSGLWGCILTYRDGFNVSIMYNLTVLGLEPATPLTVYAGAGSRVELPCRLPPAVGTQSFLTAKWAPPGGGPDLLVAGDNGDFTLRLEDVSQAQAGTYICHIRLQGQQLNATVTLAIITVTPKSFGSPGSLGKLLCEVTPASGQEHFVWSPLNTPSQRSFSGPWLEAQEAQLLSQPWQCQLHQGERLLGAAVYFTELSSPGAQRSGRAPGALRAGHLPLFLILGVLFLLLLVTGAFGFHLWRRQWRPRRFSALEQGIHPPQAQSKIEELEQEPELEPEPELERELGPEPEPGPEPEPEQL
The assay is described as follows: flow cytometry on HEK cells expressing cynomolgus LAG-3. As to the method:
as §1

B1: anti-human LAG-3/PD-L1 mAb2 FS18-7-9/84G09 with LALA mutation (bispecific antibody, human IgG1, kappa, L234A L235A)
heavy: EVQLVESGGGLVQPGRSLRLSCAASGFTFDDYAMHWVRQTPGKGLEWVSGISWKSNIIGYADSVKGRFTISRDNAKNSLYLQMNSLRAEDTALYYCARDITGSGSYGWFDPWGQGTLVTVSSASTKGPSVFPLAPSSKSTSGGTAALGCLVKDYFPEPVTVSWNSGALTSGVHTFPAVLQSSGLYSLSSVVTVPSSSLGTQTYICNVNHKPSNTKVDKKVEPKSCDKTHTCPPCPAPEAAGGPSVFLFPPKPKDTLMISRTPEVTCVVVDVSHEDPEVKFNWYVDGVEVHNAKTKPREEQYNSTYRVVSVLTVLHQDWLNGKEYKCKVSNKALPAPIEKTISKAKGQPREPQVYTLPPSWDEPWGEDVSLTCLVKGFYPSDIAVEWESNGQPENNYKTTPPVLDSDGSFFLYSKLTVPYDRWVWPDEFSCSVMHEALHNHYTQKSLSLSPG
light: DIQMTQSPSSLSASVGDRVTITCRASQSISSYLNWYQQKPGKAPKPLIYVASSLQSGVPSSFSGSGSGTDFTLTISSLQPEDFATYYCQQSYSNPITFGQGTRLEIKRTVAAPSVFIFPPSDEQLKSGTASVVCLLNNFYPREAKVQWKVDNALQSGNSQESVTEQDSKDSTYSLSSTLTLSKADYEKHKVYACEVTHQGLSSPVTKSFNRGEC
notes: also called FS18-7-09/84G09LALA; FS18-7-9/84G09 LALA
For B1, the EC50 in assay [1] was determined as 3.18 nM; in assay [2], 29.9 nM. Moreover, in assay [2], the “fold better binding (EC50) than control antibody 25F7” value is ≥ 2 fold.
